Reference: PMC12343972 (Nature Communications, 2025)

What was measured:
[1] = molecular target: T1, S. cerevisiae Rad50-E1235Q (S. cerevisiae, UniProt P12753, E1235Q); assay: cryo-EM structure
T1 sequence: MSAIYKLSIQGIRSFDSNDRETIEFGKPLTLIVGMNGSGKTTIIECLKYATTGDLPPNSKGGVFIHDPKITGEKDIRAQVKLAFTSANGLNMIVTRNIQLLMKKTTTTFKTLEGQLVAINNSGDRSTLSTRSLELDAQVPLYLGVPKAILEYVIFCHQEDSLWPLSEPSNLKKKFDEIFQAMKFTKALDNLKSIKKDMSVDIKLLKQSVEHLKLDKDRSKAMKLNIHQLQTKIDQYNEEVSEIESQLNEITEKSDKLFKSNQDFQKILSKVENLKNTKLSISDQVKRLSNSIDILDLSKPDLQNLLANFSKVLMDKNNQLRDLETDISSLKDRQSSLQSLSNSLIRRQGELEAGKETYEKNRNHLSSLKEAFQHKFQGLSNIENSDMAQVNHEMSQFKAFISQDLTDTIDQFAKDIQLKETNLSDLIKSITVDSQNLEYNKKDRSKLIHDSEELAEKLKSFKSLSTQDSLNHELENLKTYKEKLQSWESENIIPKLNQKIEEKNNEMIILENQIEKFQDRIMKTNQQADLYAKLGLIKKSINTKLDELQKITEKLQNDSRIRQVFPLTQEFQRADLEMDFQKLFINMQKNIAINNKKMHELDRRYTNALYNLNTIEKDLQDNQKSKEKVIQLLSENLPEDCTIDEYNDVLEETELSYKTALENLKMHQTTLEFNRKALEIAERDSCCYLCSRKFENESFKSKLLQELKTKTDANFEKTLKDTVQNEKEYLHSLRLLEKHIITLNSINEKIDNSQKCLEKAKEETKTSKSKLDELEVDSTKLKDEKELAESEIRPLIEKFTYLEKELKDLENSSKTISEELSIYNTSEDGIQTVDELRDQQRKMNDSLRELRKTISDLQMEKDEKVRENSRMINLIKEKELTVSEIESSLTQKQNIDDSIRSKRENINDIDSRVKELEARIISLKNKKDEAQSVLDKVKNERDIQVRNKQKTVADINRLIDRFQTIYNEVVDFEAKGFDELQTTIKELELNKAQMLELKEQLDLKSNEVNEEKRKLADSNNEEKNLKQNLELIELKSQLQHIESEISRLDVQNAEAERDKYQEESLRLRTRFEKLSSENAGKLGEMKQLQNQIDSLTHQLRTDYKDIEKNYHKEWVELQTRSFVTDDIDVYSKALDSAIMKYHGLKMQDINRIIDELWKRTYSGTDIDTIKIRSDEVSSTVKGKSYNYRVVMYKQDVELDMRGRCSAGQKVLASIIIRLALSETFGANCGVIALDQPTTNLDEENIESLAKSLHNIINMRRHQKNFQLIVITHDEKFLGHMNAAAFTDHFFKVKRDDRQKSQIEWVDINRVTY

[2] = molecular target: Rad50 E1235Q (MREQ complex);Mre11 (Saccharomyces cerevisiae;Saccharomyces …, UniProt P12753;P32829 1-1312;1-692, E1235Q|); assay: cryo-EM 3.2 A

Binder | binding result [1] | binding result [2]
S. cerevisiae Mre11 with a C-terminal 1xFLAG tag (natural protein) MDYPDPDTIRILITTDNHVGYNENDPITGDDSWKTFHEVMMLAKNNNVDMVVQSGDLFHVNKPSKKSLYQVLKTLRLCCMGDKPCELELLSDPSQVFHYDEFTNVNYEDPNFNISIPVFGISGNHDDASGDSLLCPMDILHATGLINHFGKVIESDKIKVVPLLFQKGSTKLALYGLAAVRDERLFRTFKDGGVTFEVPTMREGEWFNLMCVHQNHTGHTNTAFLPEQFLPDFLDMVIWGHEHECIPNLVHNPIKNFDVLQPGSSVATSLCEAEAQPKYVFILDIKYGEAPKMTPIPLETIRTFKMKSISLQDVPHLRPHDKDATSKYLIEQVEEMIRDANEETKQKLADDGEGDMVAELPKPLIRLRVDYSAPSNTQSPIDYQVENPRRFSNRFVGRVANGNNVVQFYKKRSPVTRSKKSGINGTSISDRDVEKLFSESGGELEVQTLVNDLLNKMQLSLLPEVGLNEAVKKFVDKDEKTALKEFISHEISNEVGILSTNEEFLRTDDAEEMKALIKQVKRANSVRPTPPKENDETNFAFNGNGLDSFRSSNREVRTGSPDITQSHVDNESRITHISQAESSKPTSKPKRVRTATKKKIPAFSDSTVISDAENELGDNNDAQDDVDIDENDIIMVSTDEEDASYGLLNGRKTKTKTRPAASTKTASRRGKGRASRTPKTDILGSLLAKKRK | binds | 
83-mer dsDNA (cryo-EM) (dsDNA) DNA 1: TTGATAAGAGGTCATTTTTGCGGATGGCTTAGAGCTTAATTGCTGAATCTGGTGCTGTAGCTCAACATGTTTTAAATATGCAA DNA 2: TTGCATATTTAAAACATGTTGAGCTACAGCACCAGATTCAGCAATTAAGCTCTAAGCCATCCGCAAAAATGACCTCTTATCAA |  | binds
